The values below come from US20150203573A1 (MEDICAL AND BIOLOGICAL LABORATORIES, published 2015).

In assay [1] the target is AP-MK, recombinant protein having alkaline phosphatase (AP) fused to the N-terminal of aa23-121 of MK (human) (UniProt P21741). In words: AP-MK binding inhibition assay on TNB1 cells; antibody 10 ug/mL.
Target sequence in this assay (P21741 23-143, form in doubt): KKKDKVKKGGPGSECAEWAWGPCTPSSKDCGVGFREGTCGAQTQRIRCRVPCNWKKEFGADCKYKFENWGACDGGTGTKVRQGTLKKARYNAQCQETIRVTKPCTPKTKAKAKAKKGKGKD
Assay [2] concerns the target T1, full length purified peptide of pleiotrophin (PEPTIDE INSTITUTE, INC.: 4335-v) (UniProt P21246 33-168, limits assumed).
T1 construct: mature; Bought product; also called PTN
T1 sequence (looked up): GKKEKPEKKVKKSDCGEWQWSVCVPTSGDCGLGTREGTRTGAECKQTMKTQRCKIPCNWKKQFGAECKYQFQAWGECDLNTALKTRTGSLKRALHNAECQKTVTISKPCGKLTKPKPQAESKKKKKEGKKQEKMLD
Description: ELISA on full length purified peptide of pleiotrophin. (In general: An ELISA detects its analyte on a solid surface through an enzyme-linked reagent.)

In assay [3] the target is AP-MK, recombinant protein having alkaline phosphatase (AP) fused to the N-terminal of aa23-121 of MK (human) (UniProt P21741). In words: AP-MK binding inhibition assay on TNB1 cells; AP-MK 0.6 U/ml, antibody 90 ug/mL.
Assay [4] has as its target T2, mutant MK recombinant protein MK-W69A (human, UniProt P21741 23-143, W69A).
T2 construct: range 23-143; Made from MKver10-pQCxmhIPG, secreted from 293T cells; not shown: linker and tag from vector pQCxmhIPG
T2 sequence (looked up): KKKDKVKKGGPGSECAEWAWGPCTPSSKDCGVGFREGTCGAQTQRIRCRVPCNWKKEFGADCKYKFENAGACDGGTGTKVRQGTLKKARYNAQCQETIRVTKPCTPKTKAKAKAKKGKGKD
In words: ELISA, plates coated with wild type or mutant MK, antibody serially diluted from 5 ug/mL. The protocol:
(§1) Hybridomas producing anti-MK antibodies were selected by enzyme-linked immunosorbent assay (ELISA). The assay used the aforementioned recombinant human MK (MKver10) which had been dispensed in a 96-well ELISA plate (nunc) in an amount of 0.5 μg/mL (50 μL/well) and left to stand for 2 hours at room temperature or overnight at […] for adsorption. After removal of the resulting solution, 1% BSA (Nacalai: 01863-35)-5% Sucrose (WAKO)-PBS was added in an amount of 150 μL/well, and the system was allowed to stand for 2 hours at room temperature to block the remaining active groups. After standing of the system, the resulting solution was removed, and the hybridoma culture supernatant (50 μL/well) was dispensed as a primary antibody, whereafter the system was allowed to stand for 1 hour. After the plate was washed with 0.05% Tween 20-PBS, HRP-labeled goat anti-mouse IgG (MBL: 330) diluted 1:10000 was added as a secondary antibody in an amount of 50 μL/well, and the system was allowed to stand for 1 hour at room temperature. After the plate was washed with 0.05% Tween 20-PBS, a color developing solution (5 mM sodium citrate, 0.8 mM 3,3′,5,5′-tetramethylbenzidine-2HCl, 10% N,N-dimethylformamide, 0.625% polyethylene glycol 4000, 5 mM citric acid monohydrate, 5 mM H₂O₂) was added in an amount of 50 μL/well, and the system was allowed to stand for 20 minutes at room temperature to develop a color. 1M phosphoric acid was added in an amount of 50 μL/well to terminate color development, and then the absorbance at 450 nm was measured using a plate reader (Thermo Fisher Scientific).
(§2) The reactivities of the resulting antibodies with the mutant MKs were confirmed by the same enzyme-linked immunosorbent assay (ELISA) as described above. The assays used plates having wild type human MK (MKver10) or the above-mentioned mutant MK (MK-W69A, MK-K79Q, MK-R81Q and MK-K102Q) adsorbed thereto. The anti-MK antibody at a maximum concentration of 5 μg/mL was serially diluted with PBS, and used as a primary antibody. As examples of the antibodies recognizing the N-terminal side or the C-terminal side of midkine, but showing no neutralizing activity, BF106 and FB74 were also evaluated similarly.

Assay [5] has as its target T3, mutant MK recombinant protein MK-K79Q (human, UniProt P21741 23-143, K79Q).
T3 construct: range 23-143; Made from MKver10-pQCxmhIPG, secreted from 293T cells; not shown: linker and tag from vector pQCxmhIPG
T3 sequence (looked up): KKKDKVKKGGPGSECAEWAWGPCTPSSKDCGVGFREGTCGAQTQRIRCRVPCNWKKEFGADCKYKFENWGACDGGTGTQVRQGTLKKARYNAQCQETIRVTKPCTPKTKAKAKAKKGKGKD
The assay is described as above. The protocol:
as §1, §2

Assay [6] concerns the target T4, mutant MK recombinant protein MK-R81Q (human, UniProt P21741 23-143, R81Q).
T4 construct: range 23-143; Made from MKver10-pQCxmhIPG, secreted from 293T cells; not shown: linker and tag from vector pQCxmhIPG
T4 sequence (looked up): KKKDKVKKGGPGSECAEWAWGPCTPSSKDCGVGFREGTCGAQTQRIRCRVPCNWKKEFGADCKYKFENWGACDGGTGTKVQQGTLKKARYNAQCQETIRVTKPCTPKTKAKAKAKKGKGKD
The description is as above. Here is the method:
as §1, §2

Assay [7] addresses T5, mutant MK recombinant protein MK-K102Q (human, UniProt P21741 23-143, K102Q).
T5 construct: range 23-143; Made from MKver10-pQCxmhIPG, secreted from 293T cells; not shown: linker and tag from vector pQCxmhIPG
T5 sequence (looked up): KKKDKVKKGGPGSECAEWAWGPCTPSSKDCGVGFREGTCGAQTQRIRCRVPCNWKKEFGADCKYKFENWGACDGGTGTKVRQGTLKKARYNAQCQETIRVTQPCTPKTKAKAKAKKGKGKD
The description is as above. The protocol:
as §1, §2

B1: hFB54-matu024 affinity-improved antibody (IgG) (antibody, V domains shown)
VH: EVQLVESGGGLVKPGGYLRLSCAASGFTFSSYAMSWVRQAPGKGLDWVATISSGGSYTYYPDSVKGRFTISRDNAKNSLYLQMNSLTDDDTAVYFCARHNYRYGEYYYAMDYWGQGTLVTVSS
VL: ETTVTQSPSSLSASVGDRVTIRCITSIDIDDEMNWYQQKSGKGPKLLISEGNTLRPGVPSRFSSSGYGTDFTLTISSLQPEDFATYYCLQSDNLPYTFGQGTKLEIK
For B1, the relative AP activity (% of wells with AP-MK alone) in assay [1] came to 22.7%.

B2: hFB54-matu014 affinity-improved antibody (IgG) (antibody, V domains shown)
VH: EVQLVESGGGLVKPGGYLRLSCAASGFTFSSYAMSWVRQTPGKGLDWVATISSGGSYTYYPDSVKGRFTISRDNVKNSLYLQMNSLTDDDTAVYFCARHNYRYDEYYYAMDYWGQGTLVTVSS
VL: ETTVTQSPSSLSASVGDRVTIRCITNIDIDDEMNWYQQKPGKGPKLLISEGNTLRPGVPSRFSSSGYGTDFTLTISSLQPEDFATYYCLQSDNLPYTFGRGTKLEIK
For the molecule B2, the relative AP activity (% of wells with AP-MK alone) in assay [1] was 25.6%.

B3: hFB54-matu039 affinity-improved antibody (IgG) (antibody, V domains shown)
VH: EVRLVESGGGLVKPGGYLRLSCAASGFTFSSYAMSWVRQAPGKGLDWVATISSGGSYTYYPDSVKERFTISRDNAKNSLYLQMNSLTDDDTAVYFCARHNYRYDEYYYGMDYWGQGTLVTVSS
VL: ETTVTQSPSSLSASVGDRVTIRCKTSIDIDDEMNWYQQKPGKGPKLLISEGNTLRPGVPSRFSSSGYGTDFTLTISSLQPEDFATYYCLQSDNLPYTFGQGTKLGIK
In the case of B3, the relative AP activity (% of wells with AP-MK alone) in assay [1] stood at 30.1%.

B4: hFB54-matu020 affinity-improved antibody (IgG) (antibody, V domains shown)
VH: EVQLVESGGGLVKPGGYQRLSCAASGFTFSSYAMSWVRQAPGKGLDWVATISSGGSYTYYPDSVKGRFTISRDNAKNSLYLQMNNLTDDDTAVYFCARHNYRYDEYYHAMDYWGQGTLVTVSS
VL: ETTVTQSPSSLSASVGDRVTIRCITSIDIDDEMNWYQQKPGKGPKLLISEGNTLRPGVPSRFSSSGYGTDFTLTISSLQPEDFATYYCLQSDNLPYTFGQGTKLEIK
Consider B4, for which the relative AP activity (% of wells with AP-MK alone) in assay [1] was determined as 26.8%.

B5: hFB54-matu054 affinity-improved antibody (IgG) (antibody, V domains shown)
VH: EVQLVESGGGLVKPGGYLRLSCAASGFTFSSYAMSWVRQAPGKGLDWVATISSGGSYTYYPDSVKGRFTISRDNTKNTLYLQMNSLTDDDTAVYFCARHNYRYDEYYYAMDYWGQGTLVTVSS
VL: ETTVTQSPSSLSASVGDRVTIRCITSIDIEDEMNWYQQKPGKGPKLLISEGNTLRPGVPSRFSSSGYGTDFTLTISSLQPEDFATYYCLQSDNLPYTFGQGTKLEIK
Take B5: the relative AP activity (% of wells with AP-MK alone) in assay [1] was determined as 33.5%.

B6: hFB54-matu062 affinity-improved antibody (IgG) (antibody, V domains shown)
VH: EVQLVESGGGLVKPGGYLRLSCAASGFTFSSYAMSWVRQAPGKGLDWVATISSGGSYTYYPDSVKGRFTISRDNAENTLYLQMNSLTNDDTAVYFCARHNYRYDEYYYAMDYWGQGTLVTVSS
VL: ETTVTQSPSSLSAFVGGRVAIRCITNIDIDDEMNWYQQKPGKGPKLLISEGNTLRPGVPSRFSSSGYGTDFTLTISSLQPEDFATYYCMQSDNLPYTFGQGTKLEIK
Consider B6, for which, in assay [1], the relative AP activity (% of wells with AP-MK alone) turned out to be 28.3%.

B7: humanized FB54 antibody hFB54 (FB54-rHa/FB54-rKc) (antibody, human IgG1, V domains shown)
VH: EVQLVESGGGLVKPGGYLRLSCAASGFTFSSYAMSWVRQAPGKGLDWVATISSGGSYTYYPDSVKGRFTISRDNAKNSLYLQMNSLTDDDTAVYFCARHNYRYDEYYYAMDYWGQGTLVTVSS
VL: ETTVTQSPSSLSASVGDRVTIRCITSTDIDDEMNWYQQKPGKGPKLLISEGNTLRPGVPSRFSSSGYGTDFTLTISSLQPEDFATYYCLQSDNLPYTFGQGTKLEIK
On to B7, for which the relative AP activity (% of wells with AP-MK alone) in assay [1] came out at 81.8%.

B8: hFB54-matu072 affinity-improved antibody (IgG) (antibody, V domains shown)
VH: EVQLVESGGGLVKPGGYLRLSCAASGFTFSSYAMSWVRQAPGKGLDWVATISSGGSYTYYPDNVKGRFTISRDNAKNSLYLQMNSLTDDDTAVYFCARHNYRYDEYYHAMDYWGQGTLVTVSS
VL: ETTVTQSPSSLFASVGDKVTIRCITSIDIDDEMNWYQQKPGKGPKLLISEGNTLRPGVPSRFSSSGYGTDFTLTISSLQPEDFATYYCLQSDNLPYTFGQGTKLEIK
Regarding B8, in assay [1], the relative AP activity (% of wells with AP-MK alone) is 33%.

B9: anti-human midkine mouse monoclonal antibody FB54 (antibody, V domains shown)
VH: EVMLVESGGGLVKPGGSLKLSCAASGFTFSSYAMSWVRQTPEKRLEWVATISSGGSYTYYPDSVKGRFTISRDNAKNTLYLQMSSLRSEDTAMYFCARHNYRYDEYYYAMDYWGQGTSVTVSS
VL: ETTVTQSPTSLSMAIGEKVTIRCITSTDIDDEMNWYQQKPGEPPKLLISEGNTLRPGVPSRFSSSGYGTDFVFTIENMLSEDVADYYCLQSDNLPYTFGGGTKLEIK
notes: Mouse hybridoma IgG; variable genes were amplified with mouse IgG1 CH1 and kappa constant primers; also called mFB54; mouse FB54 antibody
With B9, the binding result is “no binding” in assay [2]; “binds” in assay [4]; “binds” in assay [5]; “binds” in assay [6]; “binds” in assay [7]. Also, the relative AP activity (% of wells with AP-MK alone) in assay [3] turned out to be 29.5%.

B10: mFB54-matu002 affinity-improved antibody (IgG) (antibody, V domains shown)
VH: EVMLVESGGGLVKPGGSLKLSCAASGFTFSSYAMSWVRQTPEKRLEWVATISSGGSYTYYPDSVKGRFTISRDNAKNTLYLQMSSLRSEDTAMYFCARHNYRYDEYYYAMDYWGQGTSVTVSS
VL: ETTVTQSPTSLSMAIGEKVTIRCTTSIDIDDEMNWYQQMPGEPPKLLISEGNTLRPGVPSRFSSSGYGTDFVFTIENMLSEDVADYYCLQSDNLPYTFGGGTKLEIK
Consider B10, for which, in assay [1], the relative AP activity (% of wells with AP-MK alone) turned out to be 18.9%.

B11: mFB54-matu089 affinity-improved antibody (IgG) (antibody, V domains shown)
VH: EVMLVESGGGLVEPGGSLKLSCTVSGFTFSSYAMSWVRQTPEKRLEWVATISSGGSYTYYPDSVKGRFTISRDNAKNTLYLQMSSLRSEDTAMYFCARHNYRYDEYYYAMDYWGHGTSVTVSS
VL: ETTVTQSPTSLSMAIGEKVTIRCITSIDIDDEMNWYQQKPGEPPKLLISEGNTLRPGVPSRFSSSGYGTDFVFTIENVLSEDVADYYCLQSDNLPYTFGGGTKLEIK
Consider B11, for which the relative AP activity (% of wells with AP-MK alone) in assay [1] came out at 20%.
